Experimental data: patent US20260250378A1 (AGENCY FOR SCIENCE TECHNOLOGY AND RESEARCH, published 2026)
“And” between values parts separate entries of the source, which are not always exact repeats. Identical values can stand only once.

T1: Recombinant human CANX protein fused with the Fc region of human IgG1 at the C-terminus (HuCANX_hFc) (human, UniProt P27824 21-481, limits assumed, biotinylated in the ELISAs)
T1 construct: also called biotinylated HuCANX with a human Fc tag; not shown: Fc region of human IgG1 at the C-terminus
T1 sequence (looked up): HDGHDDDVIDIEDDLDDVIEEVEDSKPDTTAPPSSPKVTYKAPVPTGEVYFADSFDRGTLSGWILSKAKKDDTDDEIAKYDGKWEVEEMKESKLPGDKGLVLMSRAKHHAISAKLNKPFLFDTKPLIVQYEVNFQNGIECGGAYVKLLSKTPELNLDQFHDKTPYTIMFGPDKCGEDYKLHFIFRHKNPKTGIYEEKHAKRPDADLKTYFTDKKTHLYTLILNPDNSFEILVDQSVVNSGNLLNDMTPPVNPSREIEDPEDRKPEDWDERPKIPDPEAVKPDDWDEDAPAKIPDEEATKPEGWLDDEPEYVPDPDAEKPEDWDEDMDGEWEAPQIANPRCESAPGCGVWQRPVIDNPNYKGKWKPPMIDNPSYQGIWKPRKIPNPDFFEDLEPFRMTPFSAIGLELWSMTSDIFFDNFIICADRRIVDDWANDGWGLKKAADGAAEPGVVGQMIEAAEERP

T2: MsCANX_His (mouse, UniProt P35564)
T2 construct: recombinant, C-terminal polyhistidine tag; also called recombinant mouse CANX protein with a polyhistidine tag at the C-terminus
T2 sequence (antigen, looked up): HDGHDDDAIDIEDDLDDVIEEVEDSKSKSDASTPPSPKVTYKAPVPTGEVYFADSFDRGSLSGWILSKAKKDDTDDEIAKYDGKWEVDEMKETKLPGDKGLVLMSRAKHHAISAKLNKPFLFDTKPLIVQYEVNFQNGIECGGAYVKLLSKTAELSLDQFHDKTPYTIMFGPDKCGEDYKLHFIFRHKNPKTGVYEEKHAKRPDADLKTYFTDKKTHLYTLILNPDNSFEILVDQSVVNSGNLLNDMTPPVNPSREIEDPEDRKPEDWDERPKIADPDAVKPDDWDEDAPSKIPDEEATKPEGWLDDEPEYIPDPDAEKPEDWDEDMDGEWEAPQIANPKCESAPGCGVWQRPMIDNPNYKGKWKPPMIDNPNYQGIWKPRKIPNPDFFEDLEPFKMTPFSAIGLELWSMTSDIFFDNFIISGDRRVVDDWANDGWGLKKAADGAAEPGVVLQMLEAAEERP

T3: CRT in cell extracts (HeLa; MDA-231) (human, UniProt P27797 18-417)
T3 construct: Denatured endogenous protein in western blots; also called calreticulin
T3 sequence (looked up): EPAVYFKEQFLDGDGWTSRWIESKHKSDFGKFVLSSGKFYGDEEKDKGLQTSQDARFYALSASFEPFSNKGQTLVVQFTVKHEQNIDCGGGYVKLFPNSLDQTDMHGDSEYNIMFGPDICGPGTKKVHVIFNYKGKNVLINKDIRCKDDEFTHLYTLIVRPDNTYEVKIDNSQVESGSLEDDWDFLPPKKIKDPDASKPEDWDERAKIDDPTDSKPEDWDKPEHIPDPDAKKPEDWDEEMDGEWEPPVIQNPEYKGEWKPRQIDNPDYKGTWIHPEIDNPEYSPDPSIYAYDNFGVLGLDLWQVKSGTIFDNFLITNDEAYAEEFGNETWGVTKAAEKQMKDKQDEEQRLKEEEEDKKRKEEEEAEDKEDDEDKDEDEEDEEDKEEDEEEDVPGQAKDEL

T4: CNX-his antigen (Genscript) (human, UniProt P27824 21-481, limits assumed)
T4 construct: also called human CNX-His; recombinant CNX-histidine tag
T4 sequence (looked up): T1 sequence (looked up)

T5: recombinant human CNX protein with a polyhistidine tag at the C-terminus (HuCANX_His) (human, UniProt P27824 21-481, limits assumed)
T5 construct: also called HuCANX with a His tag
T5 sequence (looked up): T1 sequence (looked up)

B1: 5E8 IgG1 (antibody)
heavy: not shown
light: DIQLTQSPSSLSASVGDRVTITCRASQSISTYINWYQQKPGKAPKLLIYFASSLQSGVPSRFSGGGSGTDFTLTISSLQPEDFATYYCQQSYNIPVTFGQGTKVEVTRTVAAPSIFIFPPSDEQLKSGTASVVCLLNNFYPREAKVQWKVDNALQSGNSQESVTEQDSKDSTYSLSSTLTLSKADYEKHKVYACEVTHQGLSSPVTKSFNRGEC
B2: C008 IgG1 (antibody, V domains shown)
VH: QVQLVQSGGGVVQPGRSLRLSCAASGFTVSSNYMSWVRQAPGKGLEWVSVIYSGGSTYYADSVKGRFTISRDNSKNTLYLQMNSLRAEDTAVYYCARGSRAVAGAFDYWGQGTLVTVSS
VL: YSELTQDPAVSVALGQTVRITCQGDSLRTYYANWYQQKPGQAPVLVMYAKNHRPSGIPDRFSGSSSGNTASLTITGAQAEDEADYYCGSRDSSGNHPVFGGGTKVTVLG
notes: scFv clone 8 converted to human IgG1 (pFUSEss-CHIg-hG1 and pFUSE2ss-CLIg-hl2); also called IgG1 clone 8; Igg clone 8
B3: monoclonal anti-CNX antibody clone 2G9 (antibody, V domains shown)
VH: QVTLKESGGGVVQPGRSLRLSCAASGFTFSSYGMHWVRQAPGKGLEWVAVISYDGSNKYYADSVKGRFTISRDNSKNTLYLQMNSLRAEDTAVYYCTQGRDYWGQGTLVTVSS
VL: QAVLTQPSSLSASPGASASLTCTLRSGINVGTYRIYWYQQKPGSPPQYLLRYKSDSDKQQGSGVPSRFSGSKDASANAGILLISGLQSEDEADYYCMIWHSSAWVFGGGTKLTVL
notes: also called 2GP

How the values were obtained:
[1] = biological target: T1, Recombinant human CANX protein fused …; assay: ELISA, IgG1 coated 2 ug/ml, biotinylated antigen titrated (EC50 is of the antigen), streptavidin-HRP
Experimental: The 15 antibody clones were tested using ELISA against biotinylated recombinant HuCANX_hFc protein to assess binding avidity for the target, with an irrelevant IgG1 used as a negative control antibody. In brief, the 15 antibody clones were coated at 2 μg/ml onto the 96-well ELISA plates overnight at 4° C. After blocking with casein for 2 hours, the biotinylated antigen was added at different concentrations (3 times serial dilutions) and incubated for 1 hour. The wells were then washed with PBST and detected by HRP conjugated streptavidin. […] antibody clones were also tested in ELISA against recombinant HuCANX_His protein to assess binding affinity for the target, with an irrelevant IgG1 used as a negative control antibody. In brief, the 15 antibody clones were coated at 10 nM onto the 96-well ELISA plates overnight at 4° C. After blocking with casein for 2 hours, the antigen was added at different concentrations (3 times serial dilutions) and incubated for 1 hour. The wells were then washed with PBST and detected by HRP conjugated anti-His tag antibody.

MsCANX_His = biological target: T2, MsCANX_His; assay: BLI, IgG1 on AHC biosensor, MsCANX_His 200-0.39 nM
Experimental: The binding affinity of the 15 antibody clones to recombinant mouse CANX protein with a polyhistidine tag at the C-terminus (MsCANX_His) was measured by Bio-Layer Interferometry. The 15 antibody clones were loaded and captured by the anti-human IgG Fc capture (AHC) biosensors (FIG. 6). The biosensors were dipped into a range of MsCANX_His protein concentrations (from 200 nM to 0.39 nM, in 2-fold dilutions), the kinetics of the association and dissociation were then recorded.

[2] = biological target: T3, CRT in cell extracts (HeLa; MDA-231); assay: immunoblot of HeLa extracts (WT, CNX KD, CRT KD), anti-human HRP
Experimental: All Fabs converted to IgG1 were tested for western blotting detection using Hela extract from cells untreated or subjected to 72H knock down with an siRNA against CNX or CRT (CRT). After SDS-PAGE and transfer to nitrocellulose membranes, membranes were blocked with BSA and incubated with 1 μg/ml antibody solution overnight, following multiple washes, an anti-human HRP secondary antibody was used for detection of tested antibodies.

[3] = biological target: T4, CNX-his antigen (Genscript); assay: ELISA, CNX-his coated, antibody titrated, HRP secondary, 4-parameter fit; printed in grey: Curve did not plateau in ELISA
Experimental: (§1) CNX-his antigen (Genscript) was diluted in bicarbonate/carbonate antigen coating buffer (100 mM NaHCO₃) and coated on maxisorp microplates shaking overnight at 4 C. […] The wells were washed 3 times with PBST before the addition of antibodies at several indicated dilution in 2% BSA-PBST and incubated for 1 hour at 37 C. The wells were washed 3 times with PBST. The specific anti-human secondary antibody conjugated with horseradish peroxidase was diluted and added to wells with a subsequent incubation for 1 hour at 37° C. Then wells were washed 3 times with PBST. Addition of TMB solution was performed and incubated at room temperature for 30 mins or until desired color change was attained. Addition of 0.1 M HCL to stop reaction was then added and measurement of absorbance at 450 nm on a microplate reader was then followed. […] CNX ab10286 (abcam) and a human Igg1 unrelated were used as positive and negative control respectively. 4 parameters logistic curve fit were used to calculate EC50.

[4] = biological target: T6, CNX-mcherry fluorescent protein expressed in Huh7 cells; assay: immunofluorescence, Huh7 CNX-mcherry cells minus plain Huh7 cells, anti-human Alexa 647
T6 construct: Target of immunofluorescence staining inside transfected Huh7 cells
Description: A secondary anti-human antibody conjugated to Alexa fluorophore 647 was used. […] The signal obtained from normal Huh7 without CNX mCherry was used to normalize the signal obtained with Huh7 CNX-mcherry. […] Thus, these specific antibodies could detect CNX overexpression in CNX mCherry cells in immunofluorescence application settings.

[5] = biological target: T3, CRT in cell extracts (HeLa; MDA-231); assay: western blot, extracts of MDA-231 and MDA-231 CNX-/- cells
[6] = biological target: T4, CNX-his antigen (Genscript); assay: ELISA, CNX-his coated, antibody titrated, HRP secondary, 4-parameter fit
Experimental: as §1

[7] = biological target: T4, CNX-his antigen (Genscript); assay: ELISA, CNX-his coated, antibody titrated, anti-human-HRP
[8] = biological target: T5, recombinant human CNX protein with a …; assay: BLI, IgG1 on AHC biosensor, HuCANX_His 200-3.13 nM
Experimental: The 5 antibody clones were loaded and captured by the anti-human IgG Fc capture (AHC) biosensors. The biosensors were dipped into a range of HuCANX_His protein concentrations (from 200 nM to 3.13 nM, in 2-fold dilutions), the kinetics of the association and dissociation were then recorded.

BSA = biological target: T7, BSA (UniProt P02769 25-607); assay: ELISA, BSA-coated control wells
T7 construct: Control coating in ELISAs; also called bovine serum albumin

[9] = biological target: T4, CNX-his antigen (Genscript); assay: ELISA with serial dilutions of the antibody on coated His-tagged human CNX
[10] = biological target: T4, CNX-his antigen (Genscript); assay: ELISA, His-tagged human CNX coated, serial dilutions of antibody

T6 sequence (P27824 whole entry): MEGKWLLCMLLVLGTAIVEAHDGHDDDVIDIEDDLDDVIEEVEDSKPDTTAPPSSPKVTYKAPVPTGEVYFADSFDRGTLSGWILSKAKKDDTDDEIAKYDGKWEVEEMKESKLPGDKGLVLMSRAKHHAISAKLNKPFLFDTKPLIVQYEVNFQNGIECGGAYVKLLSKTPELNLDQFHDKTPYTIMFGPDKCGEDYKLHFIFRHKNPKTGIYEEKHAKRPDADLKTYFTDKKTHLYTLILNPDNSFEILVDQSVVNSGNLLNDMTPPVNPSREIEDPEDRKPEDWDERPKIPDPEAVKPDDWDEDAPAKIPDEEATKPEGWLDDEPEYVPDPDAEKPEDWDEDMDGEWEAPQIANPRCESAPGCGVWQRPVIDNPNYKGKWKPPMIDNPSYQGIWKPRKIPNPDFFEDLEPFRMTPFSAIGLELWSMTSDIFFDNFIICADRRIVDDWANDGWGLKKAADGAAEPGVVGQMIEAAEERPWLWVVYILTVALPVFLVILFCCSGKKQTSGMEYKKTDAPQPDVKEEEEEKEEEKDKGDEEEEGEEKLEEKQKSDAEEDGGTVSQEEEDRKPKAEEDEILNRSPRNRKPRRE
T7 sequence (P02769 25-607 limits assumed): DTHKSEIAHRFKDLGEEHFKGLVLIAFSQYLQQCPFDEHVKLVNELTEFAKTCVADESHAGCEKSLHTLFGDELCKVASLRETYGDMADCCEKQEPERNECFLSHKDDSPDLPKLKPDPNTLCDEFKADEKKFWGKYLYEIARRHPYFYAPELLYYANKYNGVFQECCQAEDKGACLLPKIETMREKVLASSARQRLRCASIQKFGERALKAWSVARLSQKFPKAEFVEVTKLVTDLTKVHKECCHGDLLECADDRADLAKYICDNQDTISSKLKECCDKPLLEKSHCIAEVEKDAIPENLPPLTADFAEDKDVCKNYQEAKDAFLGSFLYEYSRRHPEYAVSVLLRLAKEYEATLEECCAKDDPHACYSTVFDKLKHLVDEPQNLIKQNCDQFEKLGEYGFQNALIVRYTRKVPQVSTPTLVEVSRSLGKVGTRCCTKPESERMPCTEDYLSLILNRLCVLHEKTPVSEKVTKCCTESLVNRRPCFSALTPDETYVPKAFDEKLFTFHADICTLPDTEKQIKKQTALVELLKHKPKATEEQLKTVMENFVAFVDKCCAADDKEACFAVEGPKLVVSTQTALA

Binder	EC50 [1]	Kd (MsCANX_His)	koff (MsCANX_His)	kon (MsCANX_His)	binding result [2]	EC50 [3]	Intensity (CNX+ cells - CNX -ve) [4]	binding result [5]	EC50 [6]	EC50 [7]	Kd [8]	koff [8]	kon [8]	binding result (BSA)	EC50 (read off the curve) [9]	EC50 [10]
B1	2.14 nM	5.8 nM	0.00111 s⁻¹	192000 M⁻¹ s⁻¹	no binding (tested: 1 ug/ml)	8490 ng/mL	945									
B2							3140	binds	0.0643 µg/mL and 0.43 nM	> 0.1 nM	5.56 nM	0.000225 s⁻¹	40400 M⁻¹ s⁻¹			
B3														no binding (tested: 10 ug/ml (concentration from the text))	~3 ng/mL	~0.0031 ng/mL
